These molecules were tested on human genomic DNA (about 1.3 kb) with dUTP added (assay: Evaluation of uracil (dUTP) sensitivity by PCR with dUTP added to the reaction). Settings: dUTP added to PCR (FIGS. 3 and 4).
Assay type: biochemical
Protocol: The uracil sensitivity of the modified DNA polymerase of the present invention can be evaluated by PCR. For example, a dUTP solution is added at a final concentration of 0.5 μM to 200 μM to a common PCR reaction solution containing DNA as a template, a buffer, magnesium, dNTPs, primers, and a DNA polymerase to be evaluated, and thermal cycling is performed. After the reaction, the presence or absence of PCR products is confirmed by ethidium bromide-stained agarose electrophoresis, and the uracil sensitivity can be evaluated by the concentration of accepted dUTP. With a DNA polymerase having high uracil sensitivity, the extension reaction is inhibited by the addition of a small amount of dUTP, and PCR products cannot be confirmed. With a DNA polymerase having low uracil sensitivity, gene amplification by PCR can be confirmed without problem, even if a high concentration of dUTP is added. The modified DNA polymerase with low uracil sensitivity in the present invention refers to a DNA polymerase such that when optimum thermal cycling is performed using any primers and DNA as a template in a reaction buffer optimum for the enzyme, even if a high concentration of dUTP is added, an extension reaction is not inhibited and PCR products can be confirmed, compared to wild-type DNA polymerase, which has no mutation.
More specifically, 10× PCR buffer included in KOD-Plus-Ver. 2 (produced by Toyobo Co. Ltd.) or 10× PCR buffer included in Pfu DNA Polymerase (produced by Agilent) is used; dUTP (produced by Roche) is added to 50 μl of individual reaction solutions containing 1× PCR buffer, 1.5 mM MgSO4, dNTPs (dATP, dTTP, dCTP, and dGTP) in an amount of 0.2 mM, primers represented by SEQ ID NOs: 25 and 26 in an amount of 15 pmol for amplifying about 1.3 kb, 10 ng of human genomic DNA (produced by Roche), and 1 U of each respective enzyme, to final concentrations of 0.5, 5, 50, 100, and 200 μM. PCR is performed using a GeneAmp PCR system 9700 (Applied Biosystems) on the following schedule; preliminary reaction at 94° C. for 30 seconds, followed by 30 cycles, each cycle consisting of 98° C. for 10 seconds, 65° C. for 30 seconds, and 68° C. for 1 minute and 30 seconds. After the completion of each individual reaction, 5 μl of each of the resulting reaction solutions is subjected to agarose electrophoresis, followed by ethidium bromide staining. The uracil sensitivity can be evaluated by confirming amplified DNA fragments of about 1.3 kb under ultraviolet irradiation.
PCR was performed by the following method to evaluate uracil sensitivity. For PCR, components included in KOD-Plus-Ver. 2 (produced by Toyobo Co. Ltd.) were used. dUTP (produced by Roche) was added to 50 μl of individual reaction solutions containing 1× PCR buffer, 1.5 mM MgSO4, dNTPs (dATP, dTTP, dCTP, dGTP) in an amount of 0.2 mM, primers represented by SEQ ID NOs: 25 and 26 in an amount of 15 pmol for amplifying about 1.3 kb, 10 ng of human genomic DNA (produced by Roche), and 1 U of each respective enzyme, to final concentrations of 0.5, 5, 50, 100, and 200 μM. PCR was performed using a GeneAmp PCR system 9700 (produced by Applied Biosystems) on the following schedule: preliminary reaction at 94° C. for 30 seconds, followed by 30 cycles, each cycle consisting of 98° C. for 10 seconds, 65° C. for 30 seconds, and 68° C. for 1 minute and 30 seconds. After the completion of each individual reaction, 5 μl of each of the resulting reaction solutions was subjected to agarose electrophoresis, followed by ethidium bromide staining. Under ultraviolet irradiation, amplified DNA fragments of about 1.3 kb were confirmed. FIGS. 3, 4, 7, and 8 show the results.

| Molecule | sensitivity to dUTP / amount of amplification, comparison with single mutants or wild type |
| --- | --- |
| KOD N210D: modified KOD DNA polymerase with N210D, deficient in 3′-5′ exonuclease activity (exo(−)) (protein, listed as Thermococcus kodakaraensis) MILDTDYITEDGKPVIRIFKKENGEFKIEYDRTFEPYFYALLKDDSAIEEVKKITAERHGTVVTVKRVEKVQKKFLGRPVEVWKLYFTHPQDVPAIRDKIREHPAVIDIYEYDIPFAKRYLIDKGLVPMEGDEELKMLAFDIETLYHEGEEFAEGPILMISYADEEGARVITWKNVDLPYVDVVSTEREMIKRFLRVVKEKDPDVLITYDGDNFDFAYLKKRCEKLGINFALGRDGSEPKIQRMGDRFAVEVKGRIHFDLYPVIRRTINLPTYTLEAVYEAVFGQPKEKVYAEEITTAWETGENLERVARYSMEDAKVTYELGKEFLPMEAQLSRLIGQSLWDVSRSSTGNLVEWFLLRKAYERNELAPNKPDEKELARRRQSYEGGYVKEPERGLWENIVYLDFRSLYPSIIITHNVSPDTLNREGCKEYDVAPQVGHRFCKDFPGFIPSLLGDLLEERQKIKKKMKATIDPIERKLLDYRQRAIKILANSYYGYYGYARARWYCKECAESVTAWGREYITMTIKEIEEKYGFKVIYSDTDGFFATIPGADAETVKKKAMEFLKYINAKLPGALELEYEGFYKRGFFVTKKKYAVIDEEGKITTRGLEIVRRDWSEIAKETQARVLEALLKDGDVEKAVRIVKEVTEKLSKYEVPPEKLVIHEQITRDLKDYKATGPHVAVAKRLAARGVKIRPGTVISYIVLKGSGRIGDRAIPFDEFDPTKHKYDAEYYIENQVLPAVERILRAFGYRKEDLRYQKTRQVGLSAWLKPKGT | less sensitive to dUTP than the wild-type DNA polymerase |
| KOD I142R: modified KOD DNA polymerase with I142R, deficient in 3′-5′ exonuclease activity (exo(−)) (protein, listed as Thermococcus kodakaraensis) MILDTDYITEDGKPVIRIFKKENGEFKIEYDRTFEPYFYALLKDDSAIEEVKKITAERHGTVVTVKRVEKVQKKFLGRPVEVWKLYFTHPQDVPAIRDKIREHPAVIDIYEYDIPFAKRYLIDKGLVPMEGDEELKMLAFDRETLYHEGEEFAEGPILMISYADEEGARVITWKNVDLPYVDVVSTEREMIKRFLRVVKEKDPDVLITYNGDNFDFAYLKKRCEKLGINFALGRDGSEPKIQRMGDRFAVEVKGRIHFDLYPVIRRTINLPTYTLEAVYEAVFGQPKEKVYAEEITTAWETGENLERVARYSMEDAKVTYELGKEFLPMEAQLSRLIGQSLWDVSRSSTGNLVEWFLLRKAYERNELAPNKPDEKELARRRQSYEGGYVKEPERGLWENIVYLDFRSLYPSIIITHNVSPDTLNREGCKEYDVAPQVGHRFCKDFPGFIPSLLGDLLEERQKIKKKMKATIDPIERKLLDYRQRAIKILANSYYGYYGYARARWYCKECAESVTAWGREYITMTIKEIEEKYGFKVIYSDTDGFFATIPGADAETVKKKAMEFLKYINAKLPGALELEYEGFYKRGFFVTKKKYAVIDEEGKITTRGLEIVRRDWSEIAKETQARVLEALLKDGDVEKAVRIVKEVTEKLSKYEVPPEKLVIHEQITRDLKDYKATGPHVAVAKRLAARGVKIRPGTVISYIVLKGSGRIGDRAIPFDEFDPTKHKYDAEYYIENQVLPAVERILRAFGYRKEDLRYQKTRQVGLSAWLKPKGT | less sensitive to dUTP than the wild-type DNA polymerase |
| KOD D141A/E143A: modified KOD DNA polymerase with D141A and E143A, deficient in 3′-5′ exonuclease activity (exo(−)) (protein, listed as Thermococcus kodakaraensis) MILDTDYITEDGKPVIRIFKKENGEFKIEYDRTFEPYFYALLKDDSAIEEVKKITAERHGTVVTVKRVEKVQKKFLGRPVEVWKLYFTHPQDVPAIRDKIREHPAVIDIYEYDIPFAKRYLIDKGLVPMEGDEELKMLAFAIATLYHEGEEFAEGPILMISYADEEGARVITWKNVDLPYVDVVSTEREMIKRFLRVVKEKDPDVLITYNGDNFDFAYLKKRCEKLGINFALGRDGSEPKIQRMGDRFAVEVKGRIHFDLYPVIRRTINLPTYTLEAVYEAVFGQPKEKVYAEEITTAWETGENLERVARYSMEDAKVTYELGKEFLPMEAQLSRLIGQSLWDVSRSSTGNLVEWFLLRKAYERNELAPNKPDEKELARRRQSYEGGYVKEPERGLWENIVYLDFRSLYPSIIITHNVSPDTLNREGCKEYDVAPQVGHRFCKDFPGFIPSLLGDLLEERQKIKKKMKATIDPIERKLLDYRQRAIKILANSYYGYYGYARARWYCKECAESVTAWGREYITMTIKEIEEKYGFKVIYSDTDGFFATIPGADAETVKKKAMEFLKYINAKLPGALELEYEGFYKRGFFVTKKKYAVIDEEGKITTRGLEIVRRDWSEIAKETQARVLEALLKDGDVEKAVRIVKEVTEKLSKYEVPPEKLVIHEQITRDLKDYKATGPHVAVAKRLAARGVKIRPGTVISYIVLKGSGRIGDRAIPFDEFDPTKHKYDAEYYIENQVLPAVERILRAFGYRKEDLRYQKTRQVGLSAWLKPKGT | less sensitive to dUTP than the wild-type DNA polymerase |

Reference: patent publication US20150218534A1, “MODIFIED DNA POLYMERASE” (TOYOBO CO., LTD., priority 2012, published 2015)
